We go through 1 molecule from paper PMC3618968 (The Journal of neuroscience : the official journal of the …, 2013).

In the assay the target is mouse PCDH15 EC1+2 (wild type) (mouse, UniProt Q99PJ1 27-259). Put plainly: ITC. (In general: ITC needs no label: the signal is the heat of the interaction.)

B1: mouse CDH23 EC1+2 (domain or fragment)
chain: QVNRLPFFTNHFFDTYLLISEDTPVGSSVTQLLARDMDNDPLVFGVSGEEASRFFAVEPDTGVVWLRQPLDRETKSEFTVEFSVSDHQGVITRKVNIQVGDVNDNAPTFHNQPYSVRIPENTPVGTPIFIVNATDPDLGAGGSVLYSFQPPSPFFAIDSARGIVTVIQELDYEVTQAYQLTVNATDQDKTRPLSTLANLAIIITD
Take B1: the binding result is listed as “binds”.
